Measurements: US7005258B1, “Cdc25 genes, encoded products and uses thereof” (The National Institutes of Health, priority 1991, dated 2006)

T1: human cdc25 A (GST fusion protein) (Homo sapiens, UniProt P30304)
T1 construct: A plasmid containing the entire open reading frame of human cdc25 A was digested with Ncol (at amino acid 1); made in house; host or cells: E. coli (bacteria)
T1 sequence (P30304 1-524): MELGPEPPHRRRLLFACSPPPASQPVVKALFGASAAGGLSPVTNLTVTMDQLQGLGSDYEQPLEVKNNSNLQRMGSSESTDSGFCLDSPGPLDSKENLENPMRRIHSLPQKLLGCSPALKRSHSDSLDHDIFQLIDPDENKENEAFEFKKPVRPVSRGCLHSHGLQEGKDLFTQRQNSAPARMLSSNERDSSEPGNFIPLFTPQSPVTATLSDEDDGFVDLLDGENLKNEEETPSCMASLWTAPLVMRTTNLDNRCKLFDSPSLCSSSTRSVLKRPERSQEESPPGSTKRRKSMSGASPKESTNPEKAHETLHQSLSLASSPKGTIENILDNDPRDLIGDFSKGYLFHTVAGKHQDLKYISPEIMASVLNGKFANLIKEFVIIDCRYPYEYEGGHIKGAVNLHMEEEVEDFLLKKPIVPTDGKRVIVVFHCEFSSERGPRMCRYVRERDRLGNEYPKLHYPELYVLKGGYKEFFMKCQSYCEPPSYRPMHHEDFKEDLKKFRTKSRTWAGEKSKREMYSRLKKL

T2: human cdc25 B (GST fusion protein) (Homo sapiens, UniProt P30305)
T2 construct: An 2.4 kb Smal fragment from the p4×1.2 plasmid encoding amino acids 32–566 was subcloned; made in house; host or cells: E. coli (bacteria)
T2 sequence (P30305 32-566 isoform P30305-2): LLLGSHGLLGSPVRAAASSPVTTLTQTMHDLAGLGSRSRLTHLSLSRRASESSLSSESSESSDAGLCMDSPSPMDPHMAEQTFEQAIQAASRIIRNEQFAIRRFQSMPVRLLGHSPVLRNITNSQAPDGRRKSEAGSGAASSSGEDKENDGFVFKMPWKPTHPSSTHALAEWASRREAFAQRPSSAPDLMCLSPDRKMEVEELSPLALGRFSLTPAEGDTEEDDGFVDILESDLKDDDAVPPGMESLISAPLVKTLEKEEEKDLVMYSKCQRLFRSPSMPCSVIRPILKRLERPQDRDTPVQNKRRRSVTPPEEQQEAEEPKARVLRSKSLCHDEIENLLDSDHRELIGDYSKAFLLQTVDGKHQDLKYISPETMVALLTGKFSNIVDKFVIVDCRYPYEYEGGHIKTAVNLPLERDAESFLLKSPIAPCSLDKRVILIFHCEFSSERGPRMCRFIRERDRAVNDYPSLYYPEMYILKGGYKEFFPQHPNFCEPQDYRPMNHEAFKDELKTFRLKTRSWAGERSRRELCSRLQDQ

B1: D: murine cyclin D1 (CYL1) expressed as fusion protein with GST (protein)
chain: MEHQLLCCEVETIRRAYPDTNLLNDRVLRAMLKTEETCAPSVSYFKCVQKEIVPSMRKIVATWMLEVCEEQKCEEEVFPLAMNYLDRFLSLEPLKKSRLQLLGATCMFVASKMKETIPLTAEKLCIYTDNSIRPEELLQMELLLVNKLKWNLAAMTPHDFIEHFLSKMPEADENKQTIRKHAQTFVALCATDVKFISNPPSMVAAGSVVAAMQGLNLGSPNNFLSCYRTTHFLSRVIKCDPDCLRACQEQIEALLESSLRQAQQNVDPKATEEEGEVEEEAGLACTPTDVRDVDI
modifications: left off: a dimerising Fc or GST
B2: p13: p13 protein encoded by the suc1 gene, an essential subunit of the cdc2 protein kinase (protein)
chain: MSKSGVPRLLTASERERLEPFIDQIHYSPRYADDEYEYRHVMLPKAMLKAIPTDYFNPETGTLRILQEEEWRGLGITQSLGWEMYEVHVPEPHILLFKREKDYQMKFSQQRGG

Columns and labels:
[1] = biological target: T1, human cdc25 A (GST fusion protein); assay: cdc25 A tyrosine phosphatase assay with 32P-RCML substrate; format: biochemical
Description: A plasmid containing the entire open reading frame of human cdc25 A was digested with Ncol (at amino acid 1), blunt ended with T4 DNA polymerase, heat inactivated, extracted with phenolchlorophorm, ethanol precipitated and digested with EcoRI. The resultant 2.0 kb fragment was gel-purified and ligated into pGEX-2T Smal/EcoRI digested vector. Resultant plasmid upon transformation into bacteria gave rise to a 90 kd IPTG-inducible protein. […] Absorbance at 410 nm was determined using a molar absorptivity of 1.78×10^4M^−1 cm^−1 to calculate the concentration of the p-nitrophenolate ion generated in the assay. […]
Reduced carboxamidomethylated and maleylated lysozyme (RCML) was obtained from N. Tonks in a ^32P-tyrosine phosphorylated form. […] Reactions ([…]) were performed at 30° C. for 10 or 20 min, and after addition of the fatty acid free bovine serum albumin (BSA, Sigma) to 2 mg/ml, proteins were precipitated with […] of 20% trichloroacetic acid, vortexed, incubated at −70° C. for 5 min, thawed, spun in an Eppendorf centrifuge for 5–10 min at the maximal speed and […] supernatants were counted in 2 ml Aquasol (NEN) for 10 min. […]

[2] = biological target: T2, human cdc25 B (GST fusion protein); assay: cdc25 B tyrosine phosphatase assay, pH 8.8; format: biochemical; settings: p13 at 25 mM, in the presence or absence of cyclin B

| Molecule | effect on the endogenous phosphatase activity of cdc25 A ([1]; RCML substrate, 10 pmoles of cyclin and cdc25 protein) | effect on the activity of cdc25 B [2] | inhibition of the endogenous phosphatase activity of cdc25 A ([1]; p13 at 25 mM, without cyclin B1) |
| --- | --- | --- | --- |
| B1 | neither stimulatory nor inhibitory effect | – | – |
| B2 | – | no effect | 2–3 fold |
